According to publication PMC3609778, “Truncated and Helix-Constrained Peptides with High Affinity and Specificity for the cFos Coiled-Coil of AP-1” (PLoS ONE, 2013):
Where a SMILES comes first, the peptide text is derived from it. Bridges are numbered along the chain shown (N, C = ends).

Test: circular dichroism
Conditions: 10 mM K phosphate, 100 mM KF; pH 7; 20 °C; 150 uM

Q: Which helicity does the source give for `CC[C@H](C)[C@@H]1NC(=O)[C@H](CCC(=O)O)NC(=O)[C@@H](NC(=O)[C@H](CCCCN)NC(=O)[C@H](CC(C)C)NC(C)=O)CCCCNC(=O)C[C@@H](C(=O)N[C@@H](CC(C)C)C(=O)N[C@@H](CCCNC(=N)N)C(=O)N[C@@H](CCCCN)C(=O)N[C@@H](CCCCN)C(=O)N[C@@H](C)C(=O)N[C@H]2CCCCNC(=O)C[C@@H](C(=O)N[C@@H](Cc3c[nH]cn3)C(N)=O)NC(=O)[C@H](CCCNC(=N)N)NC(=O)[C@H](CC(C)C)NC(=O)[C@H](CCSC)NC2=O)NC(=O)[C@H](Cc2ccc(O)cc2)NC1=O` (Ac-LKKEIYDLRKKAKMLRDH-NH2; lactam 3-7, 13-17) here?
A: 0.49 frac

Q: Which helicity does the source give for `CC[C@H](C)[C@H](NC(=O)[C@H](Cc1c[nH]cn1)NC(=O)[C@@H]1CC(=O)NCCCC[C@H](NC(=O)[C@H](Cc2ccccc2)NC(=O)[C@H](CCCCN)NC(=O)[C@H](CO)NC(=O)[C@H](CCCNC(=N)N)NC(=O)[C@H](CC(C)C)NC(=O)[C@@H]2CC(=O)NCCCC[C@H](NC(=O)[C@H](CCCCN)NC(=O)[C@H](CC(C)C)NC(C)=O)C(=O)N[C@@H](CCC(=O)O)C(=O)N[C@@H]([C@@H](C)CC)C(=O)N[C@@H](Cc3ccc(O)cc3)C(=O)N2)C(=O)N[C@@H](CCSC)C(=O)N[C@@H](CC(C)C)C(=O)N[C@@H](CCCNC(=N)N)C(=O)N1)C(=O)N[C@@H](C)C(=O)N[C@@H](CCC(N)=O)C(=O)N[C@@H](CC(C)C)C(N)=O` (Ac-LKKEIYDLRSKFKMLRDHIAQL-NH2; lactam 3-7, 13-17) here?
A: 0.37 frac

Q: With `CC[C@H](C)[C@H](NC(=O)[C@H](Cc1c[nH]cn1)NC(=O)[C@@H]1CC(=O)NCCCC[C@H](NC(=O)[C@H](C)NC(=O)[C@H](CC(C)C)NC(=O)[C@H](CO)NC(=O)[C@H](CCCNC(=N)N)NC(=O)[C@H](CC(C)C)NC(=O)[C@@H]2CC(=O)NCCCC[C@H](NC(=O)[C@H](CCCCN)NC(=O)[C@H](CC(C)C)NC(C)=O)C(=O)N[C@@H](CCC(=O)O)C(=O)N[C@@H]([C@@H](C)CC)C(=O)N[C@@H](Cc3ccc(O)cc3)C(=O)N2)C(=O)N[C@@H](CCSC)C(=O)N[C@@H](CC(C)C)C(=O)N[C@@H](CCCNC(=N)N)C(=O)N1)C(=O)N[C@@H](C)C(=O)N[C@@H](CCC(N)=O)C(=O)N[C@@H](CC(C)C)C(N)=O` (Ac-LKKEIYDLRSLAKMLRDHIAQL-NH2; lactam 3-7, 13-17) as the molecule, how does the helicity read?
A: 0.34 frac

Q: With `CC[C@H](C)[C@H](NC(=O)[C@H](Cc1c[nH]cn1)NC(=O)[C@@H]1CC(=O)NCCCC[C@H](NC(=O)[C@H](C)NC(=O)[C@H](CCCCN)NC(=O)[C@H](CO)NC(=O)[C@H](CCCNC(=N)N)NC(=O)[C@H](CC(C)C)NC(=O)[C@@H]2CC(=O)NCCCC[C@H](NC(=O)[C@H](CCCNC(=N)N)NC(=O)[C@H](CC(C)C)NC(C)=O)C(=O)N[C@@H](CCC(=O)O)C(=O)N[C@@H]([C@@H](C)CC)C(=O)N[C@@H](Cc3ccc(O)cc3)C(=O)N2)C(=O)N[C@@H](CCSC)C(=O)N[C@@H](CC(C)C)C(=O)N[C@@H](CCCNC(=N)N)C(=O)N1)C(=O)N[C@@H](C)C(=O)N[C@@H](CCC(N)=O)C(=O)N[C@@H](CC(C)C)C(N)=O` (Ac-LRKEIYDLRSKAKMLRDHIAQL-NH2; lactam 3-7, 13-17) as the molecule, how does the helicity read?
A: 0.34 frac

Q: With `CC[C@H](C)[C@H](NC(C)=O)C(=O)N[C@H]1CCCCNC(=O)C[C@@H](C(=O)N[C@@H](CCCCN)C(=O)N[C@@H](C)C(=O)N[C@@H](CC(N)=O)C(=O)N[C@@H](CCSC)C(=O)N[C@@H](CC(C)C)C(=O)N[C@@H](CCCNC(=N)N)C(=O)N[C@@H](CCC(=O)O)C(=O)N[C@@H](Cc2c[nH]cn2)C(=O)N[C@H](C(=O)N[C@@H](C)C(=O)N[C@@H](CCC(N)=O)C(=O)N[C@@H](CC(C)C)C(N)=O)[C@@H](C)CC)NC(=O)[C@H](CCCNC(=N)N)NC(=O)[C@H](CC(C)C)NC(=O)[C@H](CCC(=O)O)NC1=O` (Ac-IKELRDKANMLREHIAQL-NH2; lactam 2-6) as the molecule, how does the helicity read?
A: 0.3 frac

Q: For `CC[C@H](C)[C@H](NC(=O)[C@H](Cc1c[nH]cn1)NC(=O)[C@@H]1CC(=O)NCCCC[C@H](NC(=O)[C@H](C)NC(=O)[C@H](CCCCN)NC(=O)[C@H](CO)NC(=O)[C@H](CCCNC(=N)N)NC(=O)[C@H](CC(C)C)NC(=O)[C@@H]2CC(=O)NCCCC[C@H](NC(=O)[C@H](CCCCN)NC(=O)[C@H](CC(C)C)NC(C)=O)C(=O)N[C@@H](CCC(=O)O)C(=O)N[C@@H](CC(N)=O)C(=O)N[C@@H](Cc3ccc(O)cc3)C(=O)N2)C(=O)N[C@@H](CCSC)C(=O)N[C@@H](CC(C)C)C(=O)N[C@@H](CCCNC(=N)N)C(=O)N1)C(=O)N[C@@H](C)C(=O)N[C@@H](CCC(N)=O)C(=O)N[C@@H](CC(C)C)C(N)=O` (Ac-LKKENYDLRSKAKMLRDHIAQL-NH2; lactam 3-7, 13-17), which helicity is on record?
A: 0.33 frac

Q: With `CC[C@H](C)[C@H](NC(C)=O)C(=O)N[C@H]1CCCCNC(=O)C[C@@H](C(=O)N[C@@H](CCCCN)C(=O)N[C@@H](C)C(=O)N[C@H]2CCCCNC(=O)C[C@@H](C(=O)N[C@@H](Cc3c[nH]cn3)C(=O)N[C@H](C(=O)N[C@@H](C)C(=O)N[C@@H](CCC(N)=O)C(=O)N[C@@H](CC(C)C)C(N)=O)[C@@H](C)CC)NC(=O)[C@H](CCCNC(=N)N)NC(=O)[C@H](CC(C)C)NC(=O)[C@H](CCSC)NC2=O)NC(=O)[C@H](CCCNC(=N)N)NC(=O)[C@H](CC(C)C)NC(=O)[C@H](CCC(=O)O)NC1=O` (Ac-IKELRDKAKMLRDHIAQL-NH2; lactam 2-6, 9-13) as the molecule, how does the helicity read?
A: 0.35 frac

Q: Which helicity does the source give for `CC[C@H](C)[C@@H]1NC(=O)[C@H](Cc2c[nH]cn2)NC(=O)[C@@H](NC(=O)[C@H](CCCNC(=N)N)NC(=O)[C@H](CC(C)C)NC(=O)[C@@H]2CC(=O)NCCCC[C@H](NC(=O)[C@H](CCCNC(=N)N)NC(=O)[C@H](CC(C)C)NC(=O)[C@@H]3CC(=O)NCCCC[C@H](NC(=O)[C@H](CCCCN)NC(=O)[C@H](CC(C)C)NC(C)=O)C(=O)N[C@@H](CCC(=O)O)C(=O)N[C@@H]([C@@H](C)CC)C(=O)N[C@@H](Cc4ccc(O)cc4)C(=O)N3)C(=O)N[C@@H](CCCCN)C(=O)N[C@@H](C)C(=O)N[C@@H](CC(N)=O)C(=O)N2)CCCCNC(=O)C[C@@H](C(=O)N[C@@H](CC(C)C)C(N)=O)NC(=O)[C@H](C)NC1=O` (Ac-LKKEIYDLRKKANDLRKHIADL-NH2; lactam 3-7, 10-14, 17-21) here?
A: 0.43 frac

Q: For `CC[C@H](C)[C@H](NC(=O)[C@H](Cc1c[nH]cn1)NC(=O)[C@@H]1CC(=O)NCCCC[C@H](NC(=O)[C@H](C)NC(=O)[C@H](CCCCN)NC(=O)[C@H](CO)NC(=O)[C@H](CCCNC(=N)N)NC(=O)[C@H](CC(C)C)NC(=O)[C@@H]2CC(=O)NCCCC[C@H](NC(=O)[C@H](CCCCN)NC(=O)[C@H](CC(C)C)NC(C)=O)C(=O)N[C@@H](CCC(=O)O)C(=O)N[C@@H]([C@@H](C)CC)C(=O)N[C@@H](Cc3ccc(O)cc3)C(=O)N2)C(=O)N[C@@H](CCSC)C(=O)N[C@@H](CC(C)C)C(=O)N[C@@H](CCCNC(=N)N)C(=O)N1)C(=O)N[C@@H](C)C(=O)N[C@@H](CCC(N)=O)C(=O)N[C@@H](CC(C)C)C(N)=O` (Ac-LKKEIYDLRSKAKMLRDHIAQL-NH2; lactam 3-7, 13-17), which helicity is on record?
A: 0.63 frac

Q: Which helicity does the source give for `CC[C@H](C)[C@H](NC(C)=O)C(=O)N[C@@H](Cc1ccc(O)cc1)C(=O)N[C@@H](CCC(=O)O)C(=O)N[C@@H](CC(C)C)C(=O)N[C@@H](CCCNC(=N)N)C(=O)N[C@@H](CO)C(=O)N[C@@H](CCCCN)C(=O)N[C@@H](C)C(=O)N[C@H]1CCCCNC(=O)C[C@@H](C(=O)N[C@@H](Cc2c[nH]cn2)C(=O)N[C@H](C(=O)N[C@@H](C)C(=O)N[C@@H](CCC(N)=O)C(=O)N[C@@H](CC(C)C)C(N)=O)[C@@H](C)CC)NC(=O)[C@H](CCCNC(=N)N)NC(=O)[C@H](CC(C)C)NC(=O)[C@H](CCSC)NC1=O` (Ac-IYELRSKAKMLRDHIAQL-NH2; lactam 9-13) here?
A: 0.34 frac
